{"source": "paper PMC8989981", "about": "“Negative feedback of SNRK to circ-SNRK regulates cardiac function post-myocardial infarction” (Cell Death and Differentiation, 2021)", "proteins": {"B1": {"name": "NOVA1 (NOVA alternative splicing regulator 1) (natural protein, rat (endogenous in NRCMs), UniProt Q80WA4 1-474, looked up)", "chain": "MAAAPIQQNGTHTGVPIDLDPPDSRKRPLEAPPEAGSTKRTNTGEDGQYFLKVLIPSYAAGSIIGKGGQTIVQLQKETGATIKLSKSKDFYPGTTERVCLIQGTIEALNAVHGFIAEKIREMPQNVAKTEPVSILQPQTTVNPDRIKQVKIIVPNSTAGLIIGKGGATVKAIMEQSGAWVQLSQKPDGINLQERVVTVSGEPEQNRKAVELIIQKIQEDPQSGSCLNISYANVTGPVANSNPTGFPYANTAEVLPTAAAAAGLLGHANLAGVAAFPAVLSGFTGNDLVAITSALNTLASYGYNLNTLGLGLSQAAATGALAAAAASANPAAAAANLLATYASEASASGSTAGGTAGTFALGSLAAATAATNGYFGAASPLAASAILGTEKSTDGSKDVVEIAVPENLVGAILGKGGKTLVEYQELTGARIQISKKGEFVPGTRNRKVTITGTPAATQAAQYLITQRITYEQGVR", "notes": "NOVA1 (NOVA alternative splicing regulator 1), rat, as present in neonatal rat cardiomyocytes; also called protein NOVA1; source: endogenous, NRCMs (neonatal rat cardiomyocytes), in lysate / total protein"}}, "biological_target": "the molecule itself", "experiment": "native gel or EMSA; Native-PAGE of total protein from NRCMs, blotted with anti-NOVA1"}
{"protein": "B1", "values": [{"measurement": "stoichiometry N", "value": 2}]}
